# Patent US20220332804A1 (CSL INNOVATION, published 2022)
# T1: human complement C2 (human, UniProt P06681 21-752)
# T1 sequence: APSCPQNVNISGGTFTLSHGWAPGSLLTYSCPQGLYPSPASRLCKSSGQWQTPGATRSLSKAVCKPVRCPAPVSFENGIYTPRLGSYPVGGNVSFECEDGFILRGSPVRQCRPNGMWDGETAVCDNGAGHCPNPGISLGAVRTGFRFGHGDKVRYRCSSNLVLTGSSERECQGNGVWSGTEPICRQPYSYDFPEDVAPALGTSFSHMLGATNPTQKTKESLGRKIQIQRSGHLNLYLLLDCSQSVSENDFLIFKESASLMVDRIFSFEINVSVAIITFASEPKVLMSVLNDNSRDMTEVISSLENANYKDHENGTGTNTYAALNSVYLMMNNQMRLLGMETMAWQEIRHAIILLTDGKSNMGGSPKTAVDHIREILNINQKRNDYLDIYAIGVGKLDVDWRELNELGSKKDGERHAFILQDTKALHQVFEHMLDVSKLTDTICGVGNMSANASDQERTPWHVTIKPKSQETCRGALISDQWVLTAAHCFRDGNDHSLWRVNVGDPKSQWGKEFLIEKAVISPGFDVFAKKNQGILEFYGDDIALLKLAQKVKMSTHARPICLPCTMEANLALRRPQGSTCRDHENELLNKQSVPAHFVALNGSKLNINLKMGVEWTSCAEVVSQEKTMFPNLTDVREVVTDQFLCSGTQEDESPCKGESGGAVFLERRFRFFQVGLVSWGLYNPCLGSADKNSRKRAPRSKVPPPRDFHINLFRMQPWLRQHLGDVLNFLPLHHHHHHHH
# T2: human C2 A472S (human, UniProt P06681 21-752)
# T2 sequence: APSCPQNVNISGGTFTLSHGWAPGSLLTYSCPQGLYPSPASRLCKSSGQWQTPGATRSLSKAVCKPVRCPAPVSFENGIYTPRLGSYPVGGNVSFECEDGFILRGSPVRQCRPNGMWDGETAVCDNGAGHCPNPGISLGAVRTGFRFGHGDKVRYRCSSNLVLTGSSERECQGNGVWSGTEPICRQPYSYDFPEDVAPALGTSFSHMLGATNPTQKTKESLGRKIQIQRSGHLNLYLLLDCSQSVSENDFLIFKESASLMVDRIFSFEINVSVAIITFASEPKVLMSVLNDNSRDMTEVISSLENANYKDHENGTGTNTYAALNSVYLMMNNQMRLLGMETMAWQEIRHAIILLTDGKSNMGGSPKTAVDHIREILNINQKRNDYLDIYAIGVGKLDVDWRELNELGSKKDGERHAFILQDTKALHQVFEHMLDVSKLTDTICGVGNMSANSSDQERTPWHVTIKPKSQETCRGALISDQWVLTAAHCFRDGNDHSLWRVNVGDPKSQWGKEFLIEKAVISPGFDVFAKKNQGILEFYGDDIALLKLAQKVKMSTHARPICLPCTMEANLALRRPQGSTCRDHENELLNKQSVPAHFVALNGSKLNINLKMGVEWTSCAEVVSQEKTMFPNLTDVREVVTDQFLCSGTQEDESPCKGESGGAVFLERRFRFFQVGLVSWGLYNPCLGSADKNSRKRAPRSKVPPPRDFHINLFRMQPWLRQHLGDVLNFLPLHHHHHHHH
# T3: human C2 N703A (human, UniProt P06681 21-752)
# T3 sequence: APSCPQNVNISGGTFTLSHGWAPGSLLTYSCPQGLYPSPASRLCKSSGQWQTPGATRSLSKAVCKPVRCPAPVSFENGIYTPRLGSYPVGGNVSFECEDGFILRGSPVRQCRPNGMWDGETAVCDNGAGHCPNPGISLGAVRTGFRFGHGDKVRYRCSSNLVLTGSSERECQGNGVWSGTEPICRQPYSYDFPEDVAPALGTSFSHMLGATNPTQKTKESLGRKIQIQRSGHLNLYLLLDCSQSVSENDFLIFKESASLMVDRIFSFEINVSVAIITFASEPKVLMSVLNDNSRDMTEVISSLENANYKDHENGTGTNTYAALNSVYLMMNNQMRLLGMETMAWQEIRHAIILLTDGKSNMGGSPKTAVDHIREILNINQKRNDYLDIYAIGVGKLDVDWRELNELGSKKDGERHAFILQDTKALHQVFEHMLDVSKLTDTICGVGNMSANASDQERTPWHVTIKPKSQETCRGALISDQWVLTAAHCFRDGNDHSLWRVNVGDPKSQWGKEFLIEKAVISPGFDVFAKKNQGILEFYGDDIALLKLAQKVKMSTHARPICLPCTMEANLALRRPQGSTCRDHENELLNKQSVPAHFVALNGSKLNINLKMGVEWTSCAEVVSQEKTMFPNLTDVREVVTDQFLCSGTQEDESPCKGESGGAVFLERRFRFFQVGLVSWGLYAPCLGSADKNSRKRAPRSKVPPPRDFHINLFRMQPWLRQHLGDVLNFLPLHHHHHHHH
# T4: human C2 E275A (human, UniProt P06681 21-752)
# T4 sequence: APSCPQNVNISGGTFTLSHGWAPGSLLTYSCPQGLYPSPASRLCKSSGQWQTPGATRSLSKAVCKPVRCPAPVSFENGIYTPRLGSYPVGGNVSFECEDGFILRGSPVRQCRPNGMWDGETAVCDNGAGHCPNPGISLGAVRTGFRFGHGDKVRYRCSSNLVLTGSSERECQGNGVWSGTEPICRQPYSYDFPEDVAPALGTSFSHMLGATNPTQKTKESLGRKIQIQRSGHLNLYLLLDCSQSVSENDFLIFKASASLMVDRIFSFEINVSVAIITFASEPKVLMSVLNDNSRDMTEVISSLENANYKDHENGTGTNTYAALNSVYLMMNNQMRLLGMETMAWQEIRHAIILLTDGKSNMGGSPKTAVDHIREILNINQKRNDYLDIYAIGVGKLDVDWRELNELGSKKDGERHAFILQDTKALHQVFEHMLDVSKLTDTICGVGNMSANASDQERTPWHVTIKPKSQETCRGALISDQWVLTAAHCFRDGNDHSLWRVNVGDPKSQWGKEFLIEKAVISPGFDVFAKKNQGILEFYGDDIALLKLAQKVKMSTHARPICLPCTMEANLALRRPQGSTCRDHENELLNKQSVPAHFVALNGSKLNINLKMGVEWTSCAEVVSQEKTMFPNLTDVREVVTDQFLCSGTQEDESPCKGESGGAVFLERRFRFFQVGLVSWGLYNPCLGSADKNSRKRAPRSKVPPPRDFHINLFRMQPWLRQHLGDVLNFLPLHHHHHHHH
# Tests used:
# [1] = target: T1, human complement C2; test: cell-based or functional assay
# [2] = target: T2, human C2 A472S; test: SPR, KD relative to WT C2;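 note: biacore SPR at 37 °C, anti-C2 mAbs captured via immobilised goat anti-human IgG, C2 alanine or serine surface mutants as analytes, 1:1 model fitted, double-referenced sensograms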
# [3] = target: T3, human C2 N703A; test: SPR, antibody captured, C2 as analyte;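 note: biacore SPR at 37 °C, anti-C2 mAbs captured via goat anti-human IgG on CM5 chips, double-referenced sensorgrams fit to a 1:1 kinetic or steady-state model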
# [4] = target: T4, human C2 E275A; test: SPR, antibody captured, C2 as analyte;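 note: biacore SPR at 37 °C, anti-C2 mAbs captured via goat anti-human IgG on CM5 chips, double-referenced sensorgrams fit to a 1:1 kinetic or steady-state model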
Binder,"log IC50 for inhibition of C1s-mediated cleavage of C2 (C2a band on SDS-PAGE, C1s titrated) [1] [nM]",Fold diff [2] [fold],Kd [3] [nM],Kd [4] [nM]
RF16-226 (antibody) heavy: not shown light: SYELTQPPSVSVSPGQTARITCSGDALTSKYVAWYQQKSGLAPLLVIYEDTRRPSGIPAKFSGSSSGSVATLTISGAHGDDEADYYCYSTDASGHQRVFGGGTKLTVLSQPKAAPSVTLFPPSSEELQANKATLVCLISDFYPGAVTVAWKADGSPVKAGVETTKPSKQSNNKYAASSYLSLTPEQWKSHRSYSCQVTHEGSTVEKTVAPTECS,50.3,,,
"RF16-226 (antibody, human IgG4 S228P, lambda, pH-dependent anti-C2 antibody from a phage display library; also called WT) heavy: not shown light: SYELTQPPSVSVSPGQTARITCSGDALTSKYVAWYQQKSGLAPLLVIYEDTRRPSGIPAKFSGSSSGSVATLTISGAHGDDEADYYCYSTDASGHQRVFGGGTKLTVLSQPKAAPSVTLFPPSSEELQANKATLVCLISDFYPGAVTVAWKADGSPVKAGVETTKPSKQSNNKYAASSYLSLTPEQWKSHRSYSCQVTHEGSTVEKTVAPTECS",,5,292,9.4
